In PMC3378324 (Febs Letters, 2012):

T1: Human Alix recombinant construct ALIX(V+PRR), residues 362-760 (human, UniProt Q8WUM4 362-760)
T1 sequence (looked up): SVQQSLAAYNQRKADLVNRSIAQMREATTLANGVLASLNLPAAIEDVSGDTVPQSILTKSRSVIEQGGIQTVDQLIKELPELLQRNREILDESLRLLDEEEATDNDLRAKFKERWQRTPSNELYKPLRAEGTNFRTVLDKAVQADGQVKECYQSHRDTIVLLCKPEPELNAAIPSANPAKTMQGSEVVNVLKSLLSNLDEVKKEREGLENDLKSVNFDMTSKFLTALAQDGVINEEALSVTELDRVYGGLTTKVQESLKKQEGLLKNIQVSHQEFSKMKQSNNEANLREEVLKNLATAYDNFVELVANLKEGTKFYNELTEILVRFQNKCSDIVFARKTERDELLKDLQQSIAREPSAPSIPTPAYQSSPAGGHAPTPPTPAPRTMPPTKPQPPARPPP


Tests used:
[1] = biological target: T1, Human Alix recombinant construct …; assay: NMR titration
[2] = biological target: T1, Human Alix recombinant construct …; assay: pull-down

| binding result [1] | binding result [2] | Binder |
| --- | --- | --- |
| binds |  | Fyn(R96I)-SH3, 6xHis C-terminal fusion (domain or fragment) not shown |
|  | binds | Fyn(R96I)-SH3-GST (domain or fragment) not shown |
|  | binds | Hck-SH3-GST (domain or fragment) not shown |
